# Measured values reported in paper PMC9634608, “Multi-crystal native-SAD phasing at 5 keV with a helium environment” (IUCrJ, 2022).
# B1: TehA (natural protein)
# chain: MNITKPFPLPTGYFGIPLGLAALSLAWFHLENLFPAARMVSDVLGIVASAVWILFILMYAYKLRYYFEEVRAEYHSPVRFSFIALIPITTMLVGDILYRWNPLIAEVLIWIGTIGQLLFSTLRVSELWQGGVFEQKSTHPSFYLPAVAANFTSASSLALLGYHDLGYLFFGAGMIAWIIFEPVLLQHLRISSLEPQFRATMGIVLAPAFVCVSAYLSINHGEVDTLAKILWGYGFLQLFFLLRLFPWIVEKGLNIGLWAFSFGLASMANSATAFYHGNVLQGVSIFAFVFSNVMIGLLVLMTIYKLTKGQFFLK
# notes: TehA, a bacterial homolog of the plant nitrate/chloride channel SLAC1; construct as described by Chen et al. (2010); The printed length of 314 residues may differ from the length of the UniProt entry; also called membrane protein TehA; source: E. coli BL21(DE3) pLysS, purified (IMAC, size-exclusion chromatography); not shown: His tag, C-terminal, cleaved
# Biological target: the molecule itself
# Assay: crystal structure; native-SAD at 5 keV with a helium path, 18 microcrystals, space group R3, 2.6 Å; crystals grown by sitting drop at 4°C in 0.1 M HEPES pH 7.8, 1 mM ZnSO4, 27–29% PEG 400, protein in β-OG
protein,measurement,value
B1,stoichiometry N,3
